Measurements: PMC2877510 (Journal of biomolecular NMR, 2010)

Assays:
[1] = target: ubiquitin (from bovine erythrocytes) (bovine, UniProt P0CG53 1-76); assay: NMR titration
[2] = target: carboxyl terminal domain of rat Cx43 (Cx43CT; residues S255-I382) (rat, UniProt P08050 255-382); assay: NMR titration
carboxyl terminal domain of rat Cx43 (Cx43CT; residues S255-I382), sequence (P08050 255-382): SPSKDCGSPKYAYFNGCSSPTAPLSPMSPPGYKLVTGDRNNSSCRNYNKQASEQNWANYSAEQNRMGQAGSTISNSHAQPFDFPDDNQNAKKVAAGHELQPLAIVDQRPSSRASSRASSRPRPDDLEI

binding result [1]: binds | binding result [2]: binds
B1: UBA domain of CIP75 (connexin43-interacting protein of approximately 75 kDa), residues M549-S596 (domain or fragment, mouse, UniProt Q99NB8 549-596, looked up)
chain: MPEVRFQQQLEQLNSMGFINREANLQALIATGGDINAAIERLLGSQLS
